Test results published in patent US20210388087A1 (Chugai, published 2021).

T1: Human CD3eg linker (human)
T1 construct: Single chain: epsilon and gamma subunits of human CD3 joined by a 29-mer linker, Flag-tag at the C-terminus; also called recombinant human CD3
T1 chain: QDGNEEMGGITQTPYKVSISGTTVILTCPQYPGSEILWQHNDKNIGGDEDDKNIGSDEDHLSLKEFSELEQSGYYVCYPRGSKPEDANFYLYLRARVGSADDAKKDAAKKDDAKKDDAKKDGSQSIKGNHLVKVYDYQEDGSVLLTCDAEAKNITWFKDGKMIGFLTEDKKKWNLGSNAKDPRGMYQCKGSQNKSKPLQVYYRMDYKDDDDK

B1: H183/L072 VH S62P (antibody, name in Kabat numbering, V domains shown)
VH: QVQLVESGGGLVQPGRSLRLSCAASGFTFSNAWMHWVRQAPGKGLEWVAQIKDKGNAYAAYYAPPVKGRFTISRDDSKNSIYLQMNSLKTEDTAVYYCHYVHYASASTVLPAFGVDAWGQGTTVTVSS
VL: DIVMTQSPLSLPVTPGEPASISCQASQELVHMNRNTYLHWYQQKPGQAPRLLIYKVSNRFPGVPDRFSGSGSGTDFTLKISRVEAEDVGVYYCAQGTSVPFTFGQGTKLEIK
B2: H183/L072 VH S99A (antibody, name in Kabat numbering, V domains shown)
VH: QVQLVESGGGLVQPGRSLRLSCAASGFTFSNAWMHWVRQAPGKGLEWVAQIKDKGNAYAAYYAPSVKGRFTISRDDSKNSIYLQMNSLKTEDTAVYYCHYVHYAAASTVLPAFGVDAWGQGTTVTVSS
VL: DIVMTQSPLSLPVTPGEPASISCQASQELVHMNRNTYLHWYQQKPGQAPRLLIYKVSNRFPGVPDRFSGSGSGTDFTLKISRVEAEDVGVYYCAQGTSVPFTFGQGTKLEIK
B3: H183/L072 VH S99I (antibody, name in Kabat numbering, V domains shown)
VH: QVQLVESGGGLVQPGRSLRLSCAASGFTFSNAWMHWVRQAPGKGLEWVAQIKDKGNAYAAYYAPSVKGRFTISRDDSKNSIYLQMNSLKTEDTAVYYCHYVHYAIASTVLPAFGVDAWGQGTTVTVSS
VL: DIVMTQSPLSLPVTPGEPASISCQASQELVHMNRNTYLHWYQQKPGQAPRLLIYKVSNRFPGVPDRFSGSGSGTDFTLKISRVEAEDVGVYYCAQGTSVPFTFGQGTKLEIK
B4: H183/L072 VH S99L (antibody, name in Kabat numbering, V domains shown)
VH: QVQLVESGGGLVQPGRSLRLSCAASGFTFSNAWMHWVRQAPGKGLEWVAQIKDKGNAYAAYYAPSVKGRFTISRDDSKNSIYLQMNSLKTEDTAVYYCHYVHYALASTVLPAFGVDAWGQGTTVTVSS
VL: DIVMTQSPLSLPVTPGEPASISCQASQELVHMNRNTYLHWYQQKPGQAPRLLIYKVSNRFPGVPDRFSGSGSGTDFTLKISRVEAEDVGVYYCAQGTSVPFTFGQGTKLEIK
B5: H183/L072 VH S99M (antibody, name in Kabat numbering, V domains shown)
VH: QVQLVESGGGLVQPGRSLRLSCAASGFTFSNAWMHWVRQAPGKGLEWVAQIKDKGNAYAAYYAPSVKGRFTISRDDSKNSIYLQMNSLKTEDTAVYYCHYVHYAMASTVLPAFGVDAWGQGTTVTVSS
VL: DIVMTQSPLSLPVTPGEPASISCQASQELVHMNRNTYLHWYQQKPGQAPRLLIYKVSNRFPGVPDRFSGSGSGTDFTLKISRVEAEDVGVYYCAQGTSVPFTFGQGTKLEIK
B6: H183/L072 VH S99P (antibody, name in Kabat numbering, V domains shown)
VH: QVQLVESGGGLVQPGRSLRLSCAASGFTFSNAWMHWVRQAPGKGLEWVAQIKDKGNAYAAYYAPSVKGRFTISRDDSKNSIYLQMNSLKTEDTAVYYCHYVHYAPASTVLPAFGVDAWGQGTTVTVSS
VL: DIVMTQSPLSLPVTPGEPASISCQASQELVHMNRNTYLHWYQQKPGQAPRLLIYKVSNRFPGVPDRFSGSGSGTDFTLKISRVEAEDVGVYYCAQGTSVPFTFGQGTKLEIK
B7: H183/L072 VH S100aA (antibody, name in Kabat numbering, V domains shown)
VH: QVQLVESGGGLVQPGRSLRLSCAASGFTFSNAWMHWVRQAPGKGLEWVAQIKDKGNAYAAYYAPSVKGRFTISRDDSKNSIYLQMNSLKTEDTAVYYCHYVHYASAATVLPAFGVDAWGQGTTVTVSS
VL: DIVMTQSPLSLPVTPGEPASISCQASQELVHMNRNTYLHWYQQKPGQAPRLLIYKVSNRFPGVPDRFSGSGSGTDFTLKISRVEAEDVGVYYCAQGTSVPFTFGQGTKLEIK
B8: H183/L072 VH S100aI (antibody, name in Kabat numbering, V domains shown)
VH: QVQLVESGGGLVQPGRSLRLSCAASGFTFSNAWMHWVRQAPGKGLEWVAQIKDKGNAYAAYYAPSVKGRFTISRDDSKNSIYLQMNSLKTEDTAVYYCHYVHYASAITVLPAFGVDAWGQGTTVTVSS
VL: DIVMTQSPLSLPVTPGEPASISCQASQELVHMNRNTYLHWYQQKPGQAPRLLIYKVSNRFPGVPDRFSGSGSGTDFTLKISRVEAEDVGVYYCAQGTSVPFTFGQGTKLEIK
B9: H183/L072 VH S100aL (antibody, name in Kabat numbering, V domains shown)
VH: QVQLVESGGGLVQPGRSLRLSCAASGFTFSNAWMHWVRQAPGKGLEWVAQIKDKGNAYAAYYAPSVKGRFTISRDDSKNSIYLQMNSLKTEDTAVYYCHYVHYASALTVLPAFGVDAWGQGTTVTVSS
VL: DIVMTQSPLSLPVTPGEPASISCQASQELVHMNRNTYLHWYQQKPGQAPRLLIYKVSNRFPGVPDRFSGSGSGTDFTLKISRVEAEDVGVYYCAQGTSVPFTFGQGTKLEIK
B10: H183/L072 VH S100aM (antibody, name in Kabat numbering, V domains shown)
VH: QVQLVESGGGLVQPGRSLRLSCAASGFTFSNAWMHWVRQAPGKGLEWVAQIKDKGNAYAAYYAPSVKGRFTISRDDSKNSIYLQMNSLKTEDTAVYYCHYVHYASAMTVLPAFGVDAWGQGTTVTVSS
VL: DIVMTQSPLSLPVTPGEPASISCQASQELVHMNRNTYLHWYQQKPGQAPRLLIYKVSNRFPGVPDRFSGSGSGTDFTLKISRVEAEDVGVYYCAQGTSVPFTFGQGTKLEIK
B11: H183/L072 VH S100aP (antibody, name in Kabat numbering, V domains shown)
VH: QVQLVESGGGLVQPGRSLRLSCAASGFTFSNAWMHWVRQAPGKGLEWVAQIKDKGNAYAAYYAPSVKGRFTISRDDSKNSIYLQMNSLKTEDTAVYYCHYVHYASAPTVLPAFGVDAWGQGTTVTVSS
VL: DIVMTQSPLSLPVTPGEPASISCQASQELVHMNRNTYLHWYQQKPGQAPRLLIYKVSNRFPGVPDRFSGSGSGTDFTLKISRVEAEDVGVYYCAQGTSVPFTFGQGTKLEIK
B12: H183/L072 VH T28A (antibody, name in Kabat numbering, V domains shown)
VH: QVQLVESGGGLVQPGRSLRLSCAASGFAFSNAWMHWVRQAPGKGLEWVAQIKDKGNAYAAYYAPSVKGRFTISRDDSKNSIYLQMNSLKTEDTAVYYCHYVHYASASTVLPAFGVDAWGQGTTVTVSS
VL: DIVMTQSPLSLPVTPGEPASISCQASQELVHMNRNTYLHWYQQKPGQAPRLLIYKVSNRFPGVPDRFSGSGSGTDFTLKISRVEAEDVGVYYCAQGTSVPFTFGQGTKLEIK
B13: H183/L072 VH T28D (antibody, name in Kabat numbering, V domains shown)
VH: QVQLVESGGGLVQPGRSLRLSCAASGFDFSNAWMHWVRQAPGKGLEWVAQIKDKGNAYAAYYAPSVKGRFTISRDDSKNSIYLQMNSLKTEDTAVYYCHYVHYASASTVLPAFGVDAWGQGTTVTVSS
VL: DIVMTQSPLSLPVTPGEPASISCQASQELVHMNRNTYLHWYQQKPGQAPRLLIYKVSNRFPGVPDRFSGSGSGTDFTLKISRVEAEDVGVYYCAQGTSVPFTFGQGTKLEIK
B14: H183/L072 VH T28E (antibody, name in Kabat numbering, V domains shown)
VH: QVQLVESGGGLVQPGRSLRLSCAASGFEFSNAWMHWVRQAPGKGLEWVAQIKDKGNAYAAYYAPSVKGRFTISRDDSKNSIYLQMNSLKTEDTAVYYCHYVHYASASTVLPAFGVDAWGQGTTVTVSS
VL: DIVMTQSPLSLPVTPGEPASISCQASQELVHMNRNTYLHWYQQKPGQAPRLLIYKVSNRFPGVPDRFSGSGSGTDFTLKISRVEAEDVGVYYCAQGTSVPFTFGQGTKLEIK
B15: H183/L072 VH T28F (antibody, name in Kabat numbering, V domains shown)
VH: QVQLVESGGGLVQPGRSLRLSCAASGFFFSNAWMHWVRQAPGKGLEWVAQIKDKGNAYAAYYAPSVKGRFTISRDDSKNSIYLQMNSLKTEDTAVYYCHYVHYASASTVLPAFGVDAWGQGTTVTVSS
VL: DIVMTQSPLSLPVTPGEPASISCQASQELVHMNRNTYLHWYQQKPGQAPRLLIYKVSNRFPGVPDRFSGSGSGTDFTLKISRVEAEDVGVYYCAQGTSVPFTFGQGTKLEIK
B16: H183/L072 VH T28G (antibody, name in Kabat numbering, V domains shown)
VH: QVQLVESGGGLVQPGRSLRLSCAASGFGFSNAWMHWVRQAPGKGLEWVAQIKDKGNAYAAYYAPSVKGRFTISRDDSKNSIYLQMNSLKTEDTAVYYCHYVHYASASTVLPAFGVDAWGQGTTVTVSS
VL: DIVMTQSPLSLPVTPGEPASISCQASQELVHMNRNTYLHWYQQKPGQAPRLLIYKVSNRFPGVPDRFSGSGSGTDFTLKISRVEAEDVGVYYCAQGTSVPFTFGQGTKLEIK
B17: H183/L072 VH T28H (antibody, name in Kabat numbering, V domains shown)
VH: QVQLVESGGGLVQPGRSLRLSCAASGFHFSNAWMHWVRQAPGKGLEWVAQIKDKGNAYAAYYAPSVKGRFTISRDDSKNSIYLQMNSLKTEDTAVYYCHYVHYASASTVLPAFGVDAWGQGTTVTVSS
VL: DIVMTQSPLSLPVTPGEPASISCQASQELVHMNRNTYLHWYQQKPGQAPRLLIYKVSNRFPGVPDRFSGSGSGTDFTLKISRVEAEDVGVYYCAQGTSVPFTFGQGTKLEIK
B18: H183/L072 VH T28I (antibody, name in Kabat numbering, V domains shown)
VH: QVQLVESGGGLVQPGRSLRLSCAASGFIFSNAWMHWVRQAPGKGLEWVAQIKDKGNAYAAYYAPSVKGRFTISRDDSKNSIYLQMNSLKTEDTAVYYCHYVHYASASTVLPAFGVDAWGQGTTVTVSS
VL: DIVMTQSPLSLPVTPGEPASISCQASQELVHMNRNTYLHWYQQKPGQAPRLLIYKVSNRFPGVPDRFSGSGSGTDFTLKISRVEAEDVGVYYCAQGTSVPFTFGQGTKLEIK
B19: H183/L072 VH T28K (antibody, name in Kabat numbering, V domains shown)
VH: QVQLVESGGGLVQPGRSLRLSCAASGFKFSNAWMHWVRQAPGKGLEWVAQIKDKGNAYAAYYAPSVKGRFTISRDDSKNSIYLQMNSLKTEDTAVYYCHYVHYASASTVLPAFGVDAWGQGTTVTVSS
VL: DIVMTQSPLSLPVTPGEPASISCQASQELVHMNRNTYLHWYQQKPGQAPRLLIYKVSNRFPGVPDRFSGSGSGTDFTLKISRVEAEDVGVYYCAQGTSVPFTFGQGTKLEIK
B20: H183/L072 VH T28L (antibody, name in Kabat numbering, V domains shown)
VH: QVQLVESGGGLVQPGRSLRLSCAASGFLFSNAWMHWVRQAPGKGLEWVAQIKDKGNAYAAYYAPSVKGRFTISRDDSKNSIYLQMNSLKTEDTAVYYCHYVHYASASTVLPAFGVDAWGQGTTVTVSS
VL: DIVMTQSPLSLPVTPGEPASISCQASQELVHMNRNTYLHWYQQKPGQAPRLLIYKVSNRFPGVPDRFSGSGSGTDFTLKISRVEAEDVGVYYCAQGTSVPFTFGQGTKLEIK

Biological target: T1, Human CD3eg linker
Experiment: Biacore SPR, vs template H183/L072

Row | Binder | fold change of affinity [fold]
1 | B1 | 1.3
2 | B2 | 1
3 | B3 | 0.7
4 | B4 | 0.8
5 | B5 | 0.9
6 | B6 | 0.6
7 | B7 | 0.8
8 | B8 | 1
9 | B9 | 1.1
10 | B10 | 0.8
11 | B11 | 1.1
12 | B12 | 0
13 | B13 | 0.6
14 | B14 | 0.6
15 | B15 | 1
16 | B16 | 0.7
17 | B17 | 0.9
18 | B18 | 1.1
19 | B19 | 2.7
20 | B20 | 0.9
